The values below come from paper PMC4242493, “Sequence specificity incompletely defines the genome-wide occupancy of Myc”.

Data set [1] addresses T1, Myc;MaxL (Homo sapiens;Homo sapiens, UniProt P01106-1;P61244 1-439;1-160, |). The experiment in a line: EMSA; 0.01 nM probe; EMSA: 25 mM HEPES pH 7.6, 100 mM KCl, 1 mM DTT, 0.1 mM EDTA, 0.01% Triton, 30 min at room temperature; 6% polyacrylamide gel in 0.5X Tris/glycine. The settings on record: protein: recombinant;recombinant, tags: C-terminal His-tag (pET21a);C-terminal His-tag (pET21a), copies: 1;1. In general terms: Mobility shift assays separate free from complexed probe on a gel.

Data set [2] concerns the target MaxL (human? (HeLa cDNA), UniProt P61244 1-160). The experiment in a line: EMSA; 0.01 nM probe; MaxL homodimer; EMSA: 25 mM HEPES pH 7.6, 100 mM KCl, 1 mM DTT, 0.1 mM EDTA, 0.01% Triton, 30 min at room temperature; 6% polyacrylamide gel in 0.5X Tris/glycine. The note with it: protein: recombinant; tags: C-terminal His-tag (pET21a); chain copies: 2; unlabeled in silver-stained EMSA.

For data set [3], the target named is T1, Myc;MaxL. The experiment in a line: EMSA; stoichiometric, 125 nM, silver stain; EMSA: 25 mM HEPES pH 7.6, 100 mM KCl, 1 mM DTT, 0.1 mM EDTA, 0.01% Triton, 30 min at room temperature; 6% polyacrylamide gel in 0.5X Tris/glycine. The note with it: protein: recombinant;recombinant; tags: C-terminal His-tag (pET21a);C-terminal His-tag (pET21a); copies: 1;1; label: unlabeled.

Data set [4] deals with Myc;MaxS (human? (HeLa cDNA);human? (HeLa cDNA), UniProt P01106-1;P61244-2 1-439;1-151, |). The data set is described as above. The settings on record: protein: recombinant;recombinant; tags: C-terminal His-tag (pET21a);C-terminal His-tag (pET21a); copies: 1;1; label: unlabeled.
Myc;MaxS, sequence (P01106 16-454, chain 1 of 2): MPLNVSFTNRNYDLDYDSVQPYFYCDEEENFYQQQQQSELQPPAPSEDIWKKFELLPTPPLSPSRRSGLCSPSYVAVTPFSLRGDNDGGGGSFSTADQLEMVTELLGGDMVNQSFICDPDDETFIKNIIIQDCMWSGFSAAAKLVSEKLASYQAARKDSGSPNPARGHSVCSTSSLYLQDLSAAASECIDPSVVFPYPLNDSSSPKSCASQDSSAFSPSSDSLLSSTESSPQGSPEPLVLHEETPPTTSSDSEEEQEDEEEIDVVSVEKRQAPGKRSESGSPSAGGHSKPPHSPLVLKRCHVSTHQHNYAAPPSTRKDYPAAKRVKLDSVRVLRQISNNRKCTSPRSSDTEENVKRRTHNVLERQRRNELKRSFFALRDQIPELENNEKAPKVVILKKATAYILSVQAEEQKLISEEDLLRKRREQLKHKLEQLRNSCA
Myc;MaxS, sequence (P61244 other isoform, or with tags, fused parts or gaps |, chain 2 of 2): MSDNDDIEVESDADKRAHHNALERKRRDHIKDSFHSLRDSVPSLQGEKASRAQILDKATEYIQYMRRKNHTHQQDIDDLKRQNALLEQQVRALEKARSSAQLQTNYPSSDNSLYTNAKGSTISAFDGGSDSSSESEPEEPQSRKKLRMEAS

For orientation: Kd means the concentration at which binding is half-saturated.

T1 sequence (P01106 16-454, chain 1 of 2): as the sequence (P01106 16-454, chain 1 of 2) above
T1 sequence (P61244 whole entry, chain 2 of 2): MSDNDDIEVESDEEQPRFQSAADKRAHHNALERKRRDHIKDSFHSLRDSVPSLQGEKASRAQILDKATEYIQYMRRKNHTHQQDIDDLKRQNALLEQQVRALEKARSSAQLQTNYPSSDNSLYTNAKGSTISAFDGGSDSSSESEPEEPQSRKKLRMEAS
MaxL, sequence (P61244 whole entry): as the sequence (P61244 whole entry, chain 2 of 2) above

B1: CACGTG probe (26 bp) (dsDNA)
DNA 1: GAGGGATCGGCACGTGGGATCGGAGG
DNA 2: CCTCCGATCCCACGTGCCGATCCCTC
As for B1, the Kd in data set [1] (unlabeled in silver-stained EMSA) is 0.1 nM; in data set [2], 0.4 nM.

B2: GTGGTG probe (26 bp) (dsDNA)
DNA 1: GAGGGATCGGGTGGTGGGATCGGAGG
DNA 2: CCTCCGATCCCACCACCCGATCCCTC
Consider B2, for which the binding result in data set [3] and in data set [4] was “binds” throughout.

B3: ATCTAG probe (26 bp) (dsDNA)
DNA 1: GAGGGATCGGATCTAGGGATCGGAGG
DNA 2: CCTCCGATCCCTAGATCCGATCCCTC
As for B3, the Kd in data set [1] (label: 32P 5' end-labeled on both strands (Kd)) is 20 nM.
